In the supplement of paper PMC7877785:
± gives the uncertainty stated by the source.

Test: self-splicing fitness, log relative to wild type (ln ratio); higher = more splicing; Tetrahymena group I intron in knt gene, E. coli kanamycin selection, DiMSum; sequences stand for … in CUCUCU…GGAGGGAAAAGUUAUCAGGCAUGCACCUGGUAGCUAGUCUUUAAACCAAUAGAUUGCAUCGGUUUAAAAGGCAAGACCGUCAAAUUGCGGGAAAGGGGUCAACAGCCGUUCAGUACCAAGUCUCAGGGGAAACUUUGAGAUGGCCUUGCAAAGGGUAUGGUAAUAAGCUGACGGACAUGGUCCUAACCACGCAGCCAAGUCCUAAGUCAACAGAUCUUCUGUUGAUAUGGAUGCAGUUCACAGACUAAAUGUCGGUCGGGGAAGAUGUAUUCUUCUCAUAAGAUAUAGUCGGACCUCUCCUUAAUGGGAGCUAGCGGAUGAAGUGAUGCAACACUGGAGCCGCUGGGAACUAAUUUGUAUGCGAAAGUAUAUUGAUUAGUUUUGGAGUACUCGUGGUCG
Outline: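 A randomised library covering all eight P1ex-region intron nucleotides was built with the intron in the knt kanamycin-resistance gene on pET-22b(+) and held in E. coli BL21(DE3). Cells were grown overnight at 37°C or 30°C on LB agar, with or without 25 μg/mL kanamycin, plus 100 μg/mL carbenicillin, 50 μM IPTG and 0.2% rhamnose, and pooled colonies were amplicon-sequenced on an Illumina HiSeq 2500. DiMSum fitness is the error-weighted combination of wild-type-normalised replicate fold changes, kanamycin versus none.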

Sequence	self-splicing fitness (ln) (30 °C)	self-splicing fitness (ln) (37 °C)
GCCGAGCAAUAUUACGCUAU	-2.6 ± 0.29	-1.75 ± 0.15
GCCGAGCAAUAUUACGCUGU	-2.17 ± 0.14	-1.57 ± 0.14
GCCGAGCAAUAUUACGGAAC	-1.82 ± 0.12	-0.538 ± 0.12
GCCGAGCAAUAUUACGGAGA	-1.55 ± 0.093	-1.15 ± 0.13
GCCGAGCAAUAUUACGGCAC	-2.24 ± 0.19	-1.71 ± 0.23
GCCGAGCAAUAUUACGGCCG	–	-1.7 ± 0.47
GCCGAGCAAUAUUACGGGGA	-1.36 ± 0.069	-0.555 ± 0.069
GCCGAGCAAUAUUACGGGUG	-0.694 ± 0.067	-0.014 ± 0.075
GCCGAGCAAUAUUACGGUAC	-2.88 ± 0.15	-0.908 ± 0.24
GCCGAGCAAUAUUACGGUAU	-1.89 ± 0.13	-0.878 ± 0.12
GCCGAGCAAUAUUACGGUCA	-1.63 ± 0.098	-0.977 ± 0.09
GCCGAGCAAUAUUACGGUUG	-1.38 ± 0.14	-0.555 ± 0.19
GCCGAGCAAUAUUACGUAAG	-2.26 ± 0.13	-1.09 ± 0.12
GCCGAGCAAUAUUACGUCAU	-3.5 ± 0.25	-1.31 ± 0.17
GCCGAGCAAUAUUACGUGCC	-3.35 ± 0.15	-2.52 ± 0.2
GCCGAGCAAUAUUACGUGUG	-1.43 ± 0.07	-0.815 ± 0.081
GCCGAGCAAUAUUACGUGUU	-2.22 ± 0.088	-1.66 ± 0.1
GCCGAGCAAUAUUACGUUUG	-3.75 ± 0.2	-1.54 ± 0.19
GCCGAGCAAUAUUACGUUUU	-3.18 ± 0.18	-1.75 ± 0.14
GCCUAGCAAUAUUACGAACG	-2.19 ± 0.19	-0.701 ± 0.27
GCCUAGCAAUAUUACGAAGC	-2.24 ± 0.13	-2.15 ± 0.19
GCCUAGCAAUAUUACGACGU	-0.19 ± 0.058	0.0659 ± 0.07
GCCUAGCAAUAUUACGAGGU	-3.07 ± 0.18	-2.9 ± 0.23
GCCUAGCAAUAUUACGAGUC	-0.636 ± 0.14	-0.0225 ± 0.18
GCCUAGCAAUAUUACGCCAG	-2.75 ± 0.27	-2.67 ± 0.48

Sequence	self-splicing fitness (ln) (30 °C)	self-splicing fitness (ln) (37 °C)
GCCUAGCAAUAUUACGCCUU	-1.15 ± 0.086	-0.212 ± 0.1
GCCUAGCAAUAUUACGCUUC	-2.42 ± 0.16	-0.334 ± 0.13
GCCUAGCAAUAUUACGCUUG	-2.37 ± 0.17	-1.96 ± 0.26
GCCUAGCAAUAUUACGGGAU	-0.903 ± 0.11	0.0611 ± 0.13
GCCUAGCAAUAUUACGGUGC	-2.59 ± 0.15	-1.48 ± 0.14
GCCUAGCAAUAUUACGGUUC	-1.02 ± 0.07	-1.45 ± 0.11
GCCUAGCAAUAUUACGGUUG	-3.8 ± 0.14	-1.62 ± 0.11
GCCUAGCAAUAUUACGUGAG	-1.21 ± 0.085	-0.757 ± 0.091
GCCUAGCAAUAUUACGUUAA	-1.86 ± 0.13	-1.28 ± 0.13
GCCUAGCAAUAUUACGUUCA	-1.37 ± 0.16	-1.12 ± 0.17
GCCUAGCAAUAUUACGUUCG	-2.74 ± 0.15	-2.09 ± 0.19
GCCUAGCAAUAUUACGUUGA	-1.54 ± 0.11	-0.577 ± 0.1
GCCUAGCAAUAUUACGUUGC	-1.05 ± 0.076	-0.0792 ± 0.081
GCCUAGCAAUAUUACGUUUA	-2.34 ± 0.18	-1.7 ± 0.14
GCGAAGCAAUAUUACGAACG	-1.63 ± 0.16	-0.889 ± 0.21
GCGAAGCAAUAUUACGAAUU	-2.58 ± 0.16	-2.38 ± 0.3
GCGAAGCAAUAUUACGACCG	-1.66 ± 0.25	-0.671 ± 0.21
GCGAAGCAAUAUUACGAGAA	-2.63 ± 0.46	-1.38 ± 0.26
GCGAAGCAAUAUUACGAUUG	-2.92 ± 0.097	-1.64 ± 0.096
GCGAAGCAAUAUUACGCAUU	-2.56 ± 0.17	-2.15 ± 0.19
GCGAAGCAAUAUUACGCCAU	–	-2.48 ± 0.36
GCGAAGCAAUAUUACGCCGU	-3.41 ± 0.35	-1.81 ± 0.29
GCGAAGCAAUAUUACGCUUU	-2.27 ± 0.19	-2.03 ± 0.4
GCGAAGCAAUAUUACGGACG	-0.0597 ± 0.13	-0.969 ± 0.2
GCGAAGCAAUAUUACGGAGU	-3.66 ± 0.2	-3.43 ± 0.42

Sequence	self-splicing fitness (ln) (30 °C)	self-splicing fitness (ln) (37 °C)
GCGAAGCAAUAUUACGGAUA	-1.76 ± 0.12	-0.933 ± 0.12
GCGAAGCAAUAUUACGGGGG	-2.43 ± 0.24	-2.48 ± 0.34
GCGAAGCAAUAUUACGGUCA	-1.7 ± 0.11	-1.36 ± 0.1
GCGAAGCAAUAUUACGUAAA	-1.85 ± 0.16	-2.12 ± 0.23
GCGAAGCAAUAUUACGUAAC	-2.64 ± 0.14	-1.44 ± 0.16
GCGAAGCAAUAUUACGUACU	-0.436 ± 0.073	0.194 ± 0.09
GCGAAGCAAUAUUACGUAUA	-2.18 ± 0.29	0.188 ± 0.43
GCGAAGCAAUAUUACGUCUC	-2.04 ± 0.12	-1.41 ± 0.14
GCGAAGCAAUAUUACGUGAA	-2.3 ± 0.14	-0.526 ± 0.14
GCGAAGCAAUAUUACGUGGA	-1.9 ± 0.13	-2.88 ± 0.21
GCGAAGCAAUAUUACGUUCA	-1.03 ± 0.13	-0.809 ± 0.16
GCGAAGCAAUAUUACGUUCU	-1.93 ± 0.11	-0.859 ± 0.11
GCGAAGCAAUAUUACGUUGG	-4.02 ± 0.17	-2.97 ± 0.18
GCGAAGCAAUAUUACGUUUU	-3.16 ± 0.12	-2.5 ± 0.17
GCGCAGCAAUAUUACGAAUC	0.348 ± 0.15	-0.0791 ± 0.13
GCGCAGCAAUAUUACGAAUU	-1.64 ± 0.14	-0.932 ± 0.22
GCGCAGCAAUAUUACGAUAA	-1.85 ± 0.11	-0.604 ± 0.14
GCGCAGCAAUAUUACGAUAU	-1.18 ± 0.078	-0.433 ± 0.1
GCGCAGCAAUAUUACGCAGA	-3.32 ± 0.22	-2.5 ± 0.24
GCGCAGCAAUAUUACGCGCG	-3.1 ± 0.32	–
GCGCAGCAAUAUUACGCGGG	-2.93 ± 0.1	-1.37 ± 0.097
GCGCAGCAAUAUUACGCGUC	-3.41 ± 0.16	-2.41 ± 0.2
GCGCAGCAAUAUUACGCGUU	-2.99 ± 0.14	-2.06 ± 0.15
GCGCAGCAAUAUUACGCUCG	-3.65 ± 0.38	-2.89 ± 0.34
GCGCAGCAAUAUUACGCUCU	-3.21 ± 0.28	-1.29 ± 0.23

Sequence	self-splicing fitness (ln) (30 °C)	self-splicing fitness (ln) (37 °C)
GCGCAGCAAUAUUACGCUUG	-2.57 ± 0.12	-1.06 ± 0.12
GCGCAGCAAUAUUACGGACG	-2.17 ± 0.13	-0.91 ± 0.15
GCGCAGCAAUAUUACGGCCC	-1.21 ± 0.14	0.349 ± 0.24
GCGCAGCAAUAUUACGGGAA	-1.92 ± 0.086	-0.883 ± 0.066
GCGCAGCAAUAUUACGGGAG	-3.14 ± 0.18	-1.39 ± 0.13
GCGCAGCAAUAUUACGGUAG	-3.4 ± 0.15	-1.88 ± 0.14
GCGCAGCAAUAUUACGGUCU	-0.494 ± 0.075	0.0551 ± 0.095
GCGCAGCAAUAUUACGGUGU	-2.83 ± 0.14	-2.47 ± 0.17
GCGCAGCAAUAUUACGUAAG	-0.982 ± 0.066	-0.943 ± 0.1
GCGCAGCAAUAUUACGUAGU	-0.438 ± 0.06	0.18 ± 0.076
GCGCAGCAAUAUUACGUAUU	-0.596 ± 0.081	-0.709 ± 0.099
GCGCAGCAAUAUUACGUGUA	-0.699 ± 0.071	-0.0774 ± 0.077
GCGCAGCAAUAUUACGUGUU	-1.06 ± 0.075	-0.857 ± 0.092
GCGGAGCAAUAUUACGAAGC	-2.45 ± 0.23	-2.13 ± 0.4
GCGGAGCAAUAUUACGAGUA	-3.21 ± 0.21	-1.82 ± 0.15
GCGGAGCAAUAUUACGCCUU	–	-2.17 ± 0.49
GCGGAGCAAUAUUACGCGGA	-2.07 ± 0.33	–
GCGGAGCAAUAUUACGCUCC	–	-0.469 ± 0.39
GCGGAGCAAUAUUACGGAAU	-2.29 ± 0.21	-3.42 ± 0.35
GCGGAGCAAUAUUACGGAUA	-2.53 ± 0.33	-1.26 ± 0.25
GCGGAGCAAUAUUACGGGAA	-2.13 ± 0.27	-2.23 ± 0.35
GCGGAGCAAUAUUACGGGAG	-2.36 ± 0.42	-0.916 ± 0.48
